These results are taken from patent US20240392013A1, “IL1RAP ANTIBODIES AND USES THEREOF” (STELEXIS THERAPEUTICS, LLC, priority 2021, published 2024).

Assay type in all cases: cell-based, human
In assay [1] the test system is patient-derived AML samples. Nature of the assay: Cell viability of patient-derived AML samples, CellTiter-Glo. As to conditions: 15 patient-derived AML samples; 0.1-100 nM, 6 days. On the procedure:
Primary patient-derived AML cells collected using leukapheresis or peripheral blood draw were selected based on expression levels of IL1RAP, IL1R1 and IL1RL1. On study day 0, cell viability was calculated, and cells were seeded at a density of 20,000 viable cells/well in 96-well plates. Cells were treated on Day 0 with IL1RAP monoclonal antibodies at a concentration of 100 nM followed by 5-fold serial dilutions. Cytarabine treatment (5 μM) was used as a positive control. Plates were kept at 37° C./5% CO2 in humified incubator and media was not changed during the duration of the assay. On Day 6, plates were removed from incubator and equilibrated to room temperature for up to 30 minutes. Then CellTiter-Glo was added to wells (100 μl) and plates were mixed for 2 minutes on plate rocker, followed by 10 minutes incubation at room temperature. Luminescent signal was recorded using Tecan plate reader and IC50s were calculated.
Background: Cellular ATP, detected with luciferase, serves as a proxy for viable cell number.

For assay [2], the system named is IL33-induced downstream signaling (phospho-ERK, p38, NFκB) in AML patient samples. Nature of the assay: IL33 signaling in AML patient samples, Western blot. As to conditions: antibody 20 μg/ml, IL33 100 ng/ml. On the procedure:
AML patient samples or cancer cells (AML, chronic myelogenous leukemia (CML), pancreatic, head and neck squamous cell carcinoma (HNSCC), bladder, non-small-cell lung carcinoma (NSCLC), colorectal and triple-negative breast cancer (TNBC)) were seeded in 6-well plates (5×10^5 cells/well) and incubated overnight at 37° C./5% CO2 in humified incubator. In experiments conducted in cancer cell lines, cells were washed 2× with PBS and serum-starved for 3 hours. Following, cells were treated with IL1RAP antibodies at concentration of 20 μg/ml and incubated for 1 h at 37° C./5% CO2 in humidified incubator. After 1 h, cells were treated with IL1β (Invivogen, cat: rcyec-hil1b), IL33 (Adipogen, cat: AG-40B-0160-C010) or IL36 cytokines (R@D, cat: 6836IL) at 100 ng/ml and incubated for 15 more minutes. Cells were harvested on ice after 1× wash with cold PBS and were centrifuged for 5 minutes at 5000 rpm at 4° C. Cells were then lysed with NP-40 buffer for 5 minutes on ice and centrifuged for 15 minutes at 15000 rpm at 4° C. Supernatants were collected and protein concentrations were determined by BCA (Thermofisher, Cat #PI23225). […] After 3× washes, ECL was applied (Thermofisher, Cat #32106) and proteins were detected after exposure to autoradioraphic films (Worldwide medical products, Cat #41101001) and protein intensity was quantitated using ImageJ software.
On the technique in general: In western blotting, separated proteins are transferred to a membrane and probed.

Assay [3] has as its system THP-1 cells. The assay can be described thus: Jurkat-Lucia NFAT-CD16 ADCC reporter assay against THP-1 cells. Particulars: THP-1 target cells. The source says:
Methods: ADCC activity is mediated through binding of NK cell's CD16 receptors to the Fc region of antibodies. A Jurkat-Lucia NFAT-CD16 ADCC Reporter cell assay (Invivogen, Cat #jktl-nfat-cd16; https://www.invivogen.com/jurkat-lucia-nfat-adcc-adcp-cells) was used to analyze IL1RAP mAb STLX2012 for ADCC activity. Briefly, the Jurkat cell line was engineered to express the cell surface Fc receptor CD16A (FcγRIIIA) and the Lucia luciferase reporter gene. ADCC is triggered by CD16A cross-linking upon antigen-bound antibody binding at the surface of immune effector cells. Cells are maintained in the presence of zeocin (100 μg/ml) and blasticidin (10 μg/ml).
Background: Reporter assays use an easily measured gene product as a stand-in for the process of interest.

For assay [4], the system named is AML cells (THP-1). Nature of the assay: Proliferation of AML cells (THP-1), Cell-Titer Glo. Particulars: 66 nM, 4 days. On the procedure: AML patient samples or cancer cells (AML and CML) were plated at density of 3×10^3 cells/well in two 96-well plates and incubated overnight at 37° C./5% CO2 in humidified incubator. The next day (Day 1) cells in one of the plates were treated with IL1RAP antibody at 10-150 μg/ml at a total volume of 100 μl. Plates were kept at 37° C./5% CO2 in humified for 3-6 days. Cells treated with vehicle or IgG served as controls and every treatment was conducted in triplicates. The second plate was treated on Day 1 with media and cell proliferation was measured on the same day by CellTiter-Glo (Promega, Cat #G7572). In more details, wells were mixed with equal volume (100 μl) of CellTiter-Glo and agitated for 2 minutes followed by 10 minutes incubation at room temperature in the dark. Luminescence signal was measured in Cytation™ (Biotek) plate reader. After 3-6 days, cell proliferation in the […] plates was measured separately in the same way.

B1: 74804_12A21B: anti-IL1RAP mAb; VH SEQ ID NO:6, VL SEQ ID NO:23, κ light chain (antibody, V domains shown)
VH: QVQLLQSGAEVKKPGSSVKVSCKASGGTFSIYAIDWVRQAPGQGLEWMGGIIPIFGTANSAQKFQGRVTITADKSTSTAYMELSSLRSEDTAVYYCARNGATSDAFDMWGQGTMVTVSS
VL: EIVLTQSPGTLSLSPGERATLSCRASLSVSSNYLAWFQQRPGQAPRLLIHGVSRRATGIPDRFSGSGSGTDFTLTISRLEPEDFAVYYCQQYGSSPLTFGGGTKVEIK
modifications: 74804_12A21B VH and 74804_29D13A VH; 74804_12A21B VL
B1: the Inhibition of viability entry in assay [1] is “inhibition of viability of patient-derived AML samples”. The “Inhibition of IL33 signaling (phosphorylation of ERK, p38 and NFκB)” value in assay [2] is “inhibited IL33 signaling in AML patient samples”. Further, the “ADCC activity (reporter)” value in assay [3] was “showed ADCC activity”. Also, the “Inhibition of cell proliferation” value in assay [4] is given as “inhibited cell proliferation”.
